Measured values taken from the RNAGym collection of RNA variant scans (doi:10.7554/elife.90254).

B1: LINE1-mini (parent)
chain: GGCAGAGCUCAACACAGCGUGGCAAAGUGGCUGUGGCUAGACUGCC

Variants of: B1
Assay: self-cleavage, relative activity (ratio to wild type); higher = more cleavage; in vitro, sequencing; the parent is a self-cleaving ribozyme

Point of comparison: GGCAGAGCUCAUCACAGUGUGGCAAAGUGGCUGUGGCUAGACUGCC, self-cleavage 0.53. Against it:
- GGCAGAGGUCAACACGGCGUGGCAAAGUGGCUGUGGCUAGACUGCC — lower, 0.11
- GGCAGAGCUCAACACAGCGUGGCAAAGAGGCUGUGACUAGACUGCC — lower, 0.14
- GGCAGAGCUCAACACAGCGUGGCAAAGUGGCUGUGGCUACACUCCC — lower, 0.06
- GGCAGAGCUCAACAUAGCGUGGCAAAGUGGCUGUCGCUAGACUGCC — lower, 0.14
- GGAAGAGCUCAACACAGCGUGGCAAAGGGGCUGUGGCUAGACUGCC — lower, 0.42
- GGCAGAGCUCAACACCGCGUGGCAAAGUGGCUGUGGCUCGACUGCC — lower, 0.02
- GUCAGAGCUCAACACAGCGUGGCAAAGUGGCUGUGGCUAGAGUGCC — lower, 0.02
- GGCAGAGAUCAUCACAGCGUGGCAAAGUGGCUGUGGCUAGACUGCC — lower, 0.23
- GGAAGAGCUCAACACAGCGUGGCAAAGUGGCUGUGGCUAAACUGCC — lower, 0.16
- GGCAGAGCGCAACACAGCGUAGCAAAGUGGCUGUGGCUAGACUGCC — lower, 0.13
- GGCUGAGCUCAACACAACGUGGCAAAGUGGCUGUGGCUAGACUGCC — lower, 0.06
- GGCAGAGCUCAAUACAGCGUGGCAAAGUGGCUGUGGCUAGGCUGCC — lower, 0.06
- GGCAGAGGUCAACACAGCGUGGCAUAGUGGCUGUGGCUAGACUGCC — lower, 0.26
- GGCAGAGCUCAACACAGCCUGGCAAAGUGUCUGUGGCUAGACUGCC — higher, 0.54
- GGCAGAGCUCAACACAGCGUGGAAAAGUGGCUGUCGCUAGACUGCC — lower, 0.14
- GGCAGAGCUCAACACACCGUGCCAAAGUGGCUGUGGCUAGACUGCC — higher, 0.82
- GGCAGAGCUCAACACAGGGUGGCAAAGUGGCUAUGGCUAGACUGCC — lower, 0.04
- GGCAGAGCUCAACACAGCGUGGCAAAUUGGCUGUGGCUCGACUGCC — lower, 0.22
- GGCAGAGCUAAACACAGCGUGGCAAAGUGGCUGUGGCUCGACUGCC — lower, 0.05
- GGCAGAGCUCACCACAGCGAGGCAAAGUGGCUGUGGCUAGACUGCC — lower, 0.03
- GGCAGAGCUCAACACACCGUGGCAAAGUGGCUGUGGCUAGUCUGCC — lower, 0.49
- GGCCGAGCUUAACACAGCGUGGCAAAGUGGCUGUGGCUAGACUGCC — lower, 0.09
- GGCAGAGCUCAAUACAGCGUGGCAAAGUUGCUGUGGCUAGACUGCC — lower, 0.21
- GGCAGAGCUCAACACAGCGUGGCAAAGAGACUGUGGCUAGACUGCC — higher, 1.65
- GGCAGAACUCAACACAGCGUGUCAAAGUGGCUGUGGCUAGACUGCC — lower, 0.14
- GGCAGAGCUGAACACAGCGUGGCAAAGUGGCUGUGGCUAGACUGUC — lower, 0.14
- GGCUGAGCUCAACACAGCGUGGCAAAGUGGCUGUGGCAAGACUGCC — lower, 0.12
- GGCAGAGCUCAACUCAGCGUGGCAAAGUGACUGUGGCUAGACUGCC — lower, 0.18
- GGCAGAGCUCAACACAGAGGGGCAAAGUGGCUGUGGCUAGACUGCC — higher, 0.61
- GGCAGAGCUCAACACAGCGUGGCAUAGUGGCUGUGGGUAGACUGCC — lower, 0.02
- GACAGAGCUCAACACAGCGUGGCAAACUGGCUGUGGCUAGACUGCC — higher, 0.72
- GGCAGAGCUCAACAUAGCGUGGCAAUGUGGCUGUGGCUAGACUGCC — higher, 0.74
- GGCCGAGCUCAACACAGAGUGGCAAAGUGGCUGUGGCUAGACUGCC — lower, 0.07
- GGCAGAGCUCAACAGAGCGUGGCAAAGUGGCCGUGGCUAGACUGCC — lower, 0.03
- GGCAGAGCUCAACACUGCGUGGCAAAGUGGCUGUGGCUAUACUGCC — lower, 0.07
- GGCAGAGCUCAACACAGCGUGGCAAAGUGGCCGUGGCGAGACUGCC — lower, 0.01
- GACAGAGCUCAACACAGCGUGGCAAAGUGACUGUGGCUAGACUGCC — higher, 1.67
- GGCAGAGCUCAACACAGCGUGGCAAAGUGGCGGUAGCUAGACUGCC — lower, 0.09
- GGCAGAGCUCAAUACAGCGUGUCAAAGUGGCUGUGGCUAGACUGCC — lower, 0.32
- GGCAGAGCUCCACACAGCGUGGCAAAGUGGCCGUGGCUAGACUGCC — lower, 0.04
- GGCAGAGCUCAACACAGCGUGGCAAAGUGGCUUUGGCUAGACCGCC — lower, 0.08
- GGCAGAGCUCAACAUAGCGUGGCAAAGUGGCCGUGGCUAGACUGCC — lower, 0.08
- GGCAGAGCUCAACACAGCGUGGCAAAGUGGCUGUGGCUCGACAGCC — lower, 0.04
- GGCAGAGCUCAACACAGCGUGGCAAAUUGGCUGUGGCUAGAAUGCC — lower, 0.17
- GGCAGAGCUCAACACAGCGUGGCAAAGUGGCUGGGGCUAGGCUGCC — lower, 0.05
- GGCAGAGCUCAACACAGCGUGGCCAAGUGGCUGUGGCUAGACUGCC — higher, 0.71
- GGCAGAUCUCAAUACAGCGUGGCAAAGUGGCUGUGGCUAGACUGCC — lower, 0.15
- GGCAGAGCUCAACUCAGCGUGGCAAAGUGGCUGUGGCUAGACUGCC — lower, 0.45
- GGCAGUGCUCAACACAGCGUGCCAAAGUGGCUGUGGCUAGACUGCC — lower, 0.37
- GGCAGAUCUAAACACAGCGUGGCAAAGUGGCUGUGGCUAGACUGCC — lower, 0.04
- GGCAGAGCUCAAUACAGCGUGGCAAAGUGGCUGUGGCUAGACUGUC — lower, 0.13
- GGCAGAGCUCAACACUGCGUGGCAAAGUGGCUUUGGCUAGACUGCC — lower, 0.14
- GGCAAAGCUCAACACAGCGUGGCAAAGUGGCUGUGGCUAGACUGGC — lower, 0.14
- GACAGGGCUCAACACAGCGUGGCAAAGUGGCUGUGGCUAGACUGCC — lower, 0.13
- UGCAGAGCUCAACACAGGGUGGCAAAGUGGCUGUGGCUAGACUGCC — lower, 0.06
- GGCAGAGCUCAACACAGCGUGGCAAAUUGGCUGCGGCUAGACUGCC — lower, 0.19
- GGGAGAGCUCAACACAGCGUGGCAAAGUGGCUGUGCCUAGACUGCC — higher, 0.66
- GGCAGAGCUCAACACAGCGUGGCAAAGUGGCUAUGGCUAUACUGCC — lower, 0.09
- GGCAGAGCUCAACACAGCGUGGCAAAGUGGCUGUGACUAGACUGGC — lower, 0.13
- GGGAGAGCUCAACACAGCGUGGCAAAGUGGCUGUGGCUAGCCUGCC — lower, 0.1
- GGCAGAGCUCAACACAGCGUGGCAAAGUCGCUGUGGCUAGACUGCC — lower, 0.49
- GGCAGAGCUCAACACAGCGUGCCAAGGUGGCUGUGGCUAGACUGCC — higher, 0.87
- CGCAGAGCUCAACACCGCGUGGCAAAGUGGCUGUGGCUAGACUGCC — lower, 0.01
- AGCAGAGCUCAACACAGCGUGGCAAAGUGGCUGUGGCUAGACUACC — lower, 0.28
- GGCAGAGCUCAACACAGCGUGGCAAAGCGGCUGAGGCUAGACUGCC — lower, 0.22
- GGCAGAGCUCCACACGGCGUGGCAAAGUGGCUGUGGCUAGACUGCC — lower, 0.05
- GGAAGAGCUCAACACAGCGGGGCAAAGUGGCUGUGGCUAGACUGCC — lower, 0.31
- GGCAGAGCUCAACACAGCGUGCCAAAGUGGCUGUGGCUAGACUGGC — lower, 0.17
- GGCAGAGCUCAACACAGCGUGGCAAAGUAGCUGUGGCUAAACUGCC — lower, 0.11
- GGUAGAGCUCAACACAGCGAGGCAAAGUGGCUGUGGCUAGACUGCC — lower, 0.28
- GGCAGAGCUCAACACAGCAUGGCAAAGUGGCUGUGGCUCGACUGCC — higher, 0.75
- GGCAGAGCUCACCACAUCGUGGCAAAGUGGCUGUGGCUAGACUGCC — lower, 0.02
- GUCAGAGCUCAACACAGCGUGGCAAAGUGGCUGUGGCUCGACUGCC — lower, 0.03
- GGCAGAGCUCAAAACAGGGUGGCAAAGUGGCUGUGGCUAGACUGCC — lower, 0.12
- GGCAGAGAUCAACACAGCGAGGCAAAGUGGCUGUGGCUAGACUGCC — lower, 0.14
- GGCAGAGCUUAACACAGCGUGGCCAAGUGGCUGUGGCUAGACUGCC — lower, 0.11
- GGCAGAGCUCAACACAGCGUGGCAAGGUGGCUGUGGCUAGACGGCC — lower, 0.03
- GGCAGAGCUCAACACAGCGUAGCAAAGUGGCUGUGGCUAGACUGUC — higher, 2.04
- GGCAGAGAUCAACAGAGCGUGGCAAAGUGGCUGUGGCUAGACUGCC — lower, 0.22
- GGCAGAGCUCAACACAGCGUGGCGAAGUGGCUGUGGAUAGACUGCC — lower, 0.09
- GACAGAGCUCAACACAGCGUGGCAAAGUGGCUGUGGCUUGACUGCC — higher, 0.76
- GGCAGAGCGCAACACAGCGUGGCAAAGUGGCUGUGGCGAGACUGCC — lower, 0.01
- UGCAGAGCUUAACACAGCGUGGCAAAGUGGCUGUGGCUAGACUGCC — lower, 0.08
- GGCAGAGCUCAACACAGCGUGGCAAAGUGGCUGUGGCUAAACUCCC — lower, 0.08
- GGUAGAGCUCAACACCGCGUGGCAAAGUGGCUGUGGCUAGACUGCC — lower, 0.09
- GGCAGAGCUCAACACAGCGUGGCUAAGUUGCUGUGGCUAGACUGCC — higher, 1.84
- GGCAGAGCUUAACACAGCGUGGCAACGUGGCUGUGGCUAGACUGCC — lower, 0.31
- GGCAGAGCUCAACACAGCGUUGCAAAGUGGCUGCGGCUAGACUGCC — lower, 0.27
- GGCAGAGCCCUACACAGCGUGGCAAAGUGGCUGUGGCUAGACUGCC — lower, 0.03
- UGCAGAGCUCAACACAGCGUGGCAAAGUGGCUGUGGCUAUACUGCC — lower, 0.08
- GGCAGAGUUCAACACAGCGUGGCAAAGUGGCGGUGGCUAGACUGCC — lower, 0.1
- GGCAGAGCUCAACACAGUGUGGCAAAGUGGCUGAGGCUAGACUGCC — lower, 0.07
- UGCAGAGCUCAACACAGCGUGGCAAAGUGGCUGGGGCUAGACUGCC — lower, 0.06
- GGCAGAGCUCAAGACAGCGUGGCAAAGGGGCUGUGGCUAGACUGCC — lower, 0.35
- GCCAGAGCUCAACAGAGCGUGGCAAAGUGGCUGUGGCUAGACUGCC — lower, 0.02
- GGCAGAGCUCAACACAGCGUGGCAAAGUGGCUGUGGCUCGACUGGC — lower, 0.12
- AGCAGAGCUCAACACAGCGUGGCAAAGUGGCUGUGGCGAGACUGCC — lower, 0.03
- GGCAGAGCUCAACUCAGCGUGGCAAAGUGGCUUUGGCUAGACUGCC — lower, 0.12
- GGCAGAGCUCAACACAGCGGGGCAAAGUGGCUCUGGCUAGACUGCC — lower, 0.06
- GGCAGAGCUCAACACAGCGUGGCAGAGUGGCUGUGGCUAGACUACC — lower, 0.21
- GGCAGAGCUCAACACAGCGGGGCGAAGUGGCUGUGGCUAGACUGCC — higher, 0.61
- GGGAGAGCUCACCACAGCGUGGCAAAGUGGCUGUGGCUAGACUGCC — lower, 0.19
- GGCAGAGCUCAACACAGAGUGACAAAGUGGCUGUGGCUAGACUGCC — higher, 1.07
- GGCAGAGCUCAACACAGCGUGGCAAAGUGGAUGGGGCUAGACUGCC — lower, 0.02
- GGCAGAGCUAAACACAGCGUGGCAAAGUGGCAGUGGCUAGACUGCC — lower, 0.02
- AGCAGAGCUCAAGACAGCGUGGCAAAGUGGCUGUGGCUAGACUGCC — lower, 0.1
- GGCAGGGCUCAACACAGCGUGGCAAAGUGGCUGAGGCUAGACUGCC — lower, 0.04
- GGAAGAGCUCAACACAGCGUGGCAAAGUGGCUGUGGCUAGACUGCA — lower, 0.4
- GGCAGAGCUCAACACUGCGUGGCAAAGUGGCUGUGGCUAGCCUGCC — lower, 0.05
- GGCAGAGCUGAACACAGCGGGGCAAAGUGGCUGUGGCUAGACUGCC — lower, 0.05
- GGCAUAGCUCAACACAGCGUGGCAAUGUGGCUGUGGCUAGACUGCC — lower, 0.09
